Assay results as given in the RNAGym collection of RNA variant scans (doi:10.1093/nar/gkz1192).

B1: CPEB3 Ribozyme (parent)
chain: UAACAGGGGGCCACAGCAGAAGCGUUCACGUCGCAGCCCCUGUCAGAUUCUGGUGAAUCUGCGAAUUCUGCUGUAUAUCUC

Variants of: B1
Assay: self-cleavage, relative activity (ratio to wild type); higher = more cleavage; in vitro, sequencing
In short: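 After error-prone PCR and barcoding, CPEB3 ribozyme mutant libraries were transcribed with T7 RNA polymerase at 37°C for 5 hours, then given 15 min with DNase I before an EDTA stop, and they cleaved during both steps. Reverse transcription with template switching preceded Illumina sequencing. Relative activity divides a variant's cleaved/total read fraction by the unmutated ribozyme's. At least 5 reads were required per variant, and three batches were averaged.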

In order of rising self-cleavage:
1. UAACAGGGGGCCACAGCAGGAGCGUUCACGUCGCAGCCCCUGUCACAUUCUGGUGAAUCUGCGAAUUCUGCUGUAUAUCUC [A20G G46C]  0.11
2. UAACAGGGGGCCACAGCAGGAGCGUUCACGUCGAAGCCCCUGUCAGAUUCUGGUGAAUCUGCGAAUUCUGCUGUAUAUCUC [A20G C34A]  0.11
3. UAACAGGGGGCCACAGCAGGAGCGUUCACGUGGCAGCCCCUGUCAGAUUCUGGUGAAUCUGCGAAUUCUGCUGUAUAUCUC [A20G C32G]  0.12
4. UAACAGGGGGCCACAGCAGGAGCGUUCACGUCGCAGCCCCUGUCAGAUUCUGGUGAAUCUGGGAAUUCUGCUGUAUAUCUC [A20G C62G]  0.17
5. UAACAGGGGGCCACAGCAGGAGCGUUCACGUCGCAGCCCCUGUCAGAUUCUGGUGAAUCUGCGAAUUCUCCUGUAUAUCUC [A20G G70C]  0.19
6. UAACAGGGGGCCACAGCAGGAGCGUUCACGUCGCAGCCCCUGUCAGAUUCUGGUGAAUCUGUGAAUUCUGCUGUAUAUCUC [A20G C62U]  0.2
7. UAACAGGGGGCCACAGCAGGAGCGUUCACGUCGCAGCCCCUGUUAGAUUCUGGUGAAUCUGCGAAUUCUGCUGUAUAUCUC [A20G C44U]  0.21
8. UAACAGGGGGCCACAGCAGGAGCGUUCACGUUGCAGCCCCUGUCAGAUUCUGGUGAAUCUGCGAAUUCUGCUGUAUAUCUC [A20G C32U]  0.22
9. UAACAGGGGGCCACAGCAGGAGCGUUCACGUCGCAGCCCCUGUCAUAUUCUGGUGAAUCUGCGAAUUCUGCUGUAUAUCUC [A20G G46U]  0.23
10. UAACAGGGGGCCACAGCAGGAGCGUUCACGUCGCAGCCCCUGUCAGAUUCUGGUGAAUCUGCGAAUUAUGCUGUAUAUCUC [A20G C68A]  0.24
11. UAACAGGGGGCCACAGCAGGAGCGUUCACGUCGCAGCCCCUGUCAAAUUCUGGUGAAUCUGCGAAUUCUGCUGUAUAUCUC [A20G G46A]  0.26
12. UAACAGGGGGCCACAGCAGGAGCGUUCACGUAGCAGCCCCUGUCAGAUUCUGGUGAAUCUGCGAAUUCUGCUGUAUAUCUC [A20G C32A]  0.27
13. UAACAGGGGGCCACAGCAGGAGCGUUCACGUCGCAGCCCCUGUAAGAUUCUGGUGAAUCUGCGAAUUCUGCUGUAUAUCUC [A20G C44A]  0.32
14. UAACAGGGGGCCACAGCAGGAGCGUUCACGUCGCAGCCCCUGUCAGAUUCUGGUGAAUCUGCGAAUUCUACUGUAUAUCUC [A20G G70A]  0.33
15. UAACAGGGGGCCACAGCAGGAGCGUUCAUGUCGCAGCCCCUGUCAGAUUCUGGUGAAUCUGCGAAUUCUGCUGUAUAUCUC [A20G C29U]  0.36
16. UAACAGGGGGCCACAGCAGGAGUGUUCACGUCGCAGCCCCUGUCAGAUUCUGGUGAAUCUGCGAAUUCUGCUGUAUAUCUC [A20G C23U]  0.38
17. UAACAGGGGGCCACAGCAGGAGCGUUCACGUCGCAGCCCCUGUCAGAUUCUGGUGAAUCUUCGAAUUCUGCUGUAUAUCUC [A20G G61U]  0.39
18. UAACAGGGGGCCACAGCAGGAGCGUUCAGGUCGCAGCCCCUGUCAGAUUCUGGUGAAUCUGCGAAUUCUGCUGUAUAUCUC [A20G C29G]  0.39
19. UAACAGGGGGCCACAGCAGGAACGUUCACGUCGCAGCCCCUGUCAGAUUCUGGUGAAUCUGCGAAUUCUGCUGUAUAUCUC [A20G G22A]  0.46
20. UAACAGGGGGCCACAGCAGGAGCGUUCACGUCGCAGCCCCUGUCAGAUUCUGGUAAAUCUGCGAAUUCUGCUGUAUAUCUC [A20G G55A]  0.58
21. UAACAGGGGGCCACAGCAGGAGCGUUCACGUCGCAGCCCCUGUCAGAUUCUGGUUAAUCUGCGAAUUCUGCUGUAUAUCUC [A20G G55U]  0.62
22. UAACAGGGGGCCACAGCAGGAGCGUUCACGUCGCAGCCCCUGUCAGAUUCUGGUGAAUCUGCCAAUUCUGCUGUAUAUCUC [A20G G63C]  0.63
23. UAACAGGGGGCCACAGCAGGAGCGUUCACGUCGCAGCCCCUGUCAGAUUCUGGUGAAUCUGCAAAUUCUGCUGUAUAUCUC [A20G G63A]  0.63
24. UAACAGGGGGCCACAGCAGGAGCGUUCACGUCGCAGCCCCUGUCAGAUUCUGUUGAAUCUGCGAAUUCUGCUGUAUAUCUC [A20G G53U]  0.69
25. UAACAGGGGGCCACAGCAGGAGCGUUCACGUCGCAGCCCCUGUCAGAUUCUGGUGAAUCUGCGAAUUUUGCUGUAUAUCUC [A20G C68U]  0.75
26. UAACAGGGGGCCACAGCAGGAGCGUUCACGUCGCAGCCCCUGUCAGAUUCUGGUGAAUCUGCUAAUUCUGCUGUAUAUCUC [A20G G63U]  0.83
27. UAACAGGGGGCCACAGCAGGAGCGUUCACGUCGCAGCCCCUGUCAGAUUCUGGUGAAUCUGCGAAUUCUGCUGUAUUUCUC [A20G A77U]  0.83
28. UAACAGGGGGCCACAGCAGGAGCGUUCACGUCGCAGCCCCUGUCAGAUUCUGGUGAAUCUGCGAAUUCUGCUGUAUAUUUC [A20G C79U]  0.85
29. UAACAGGGGGCCACAGCAGGAGCGUUCACGUCGCAGCCCCUGUCAGAUUCUAGUGAAUCUGCGAAUUCUGCUGUAUAUCUC [A20G G52A]  0.9
30. UAACAGGGGGCCACAGCAGGAGCGUUCACGUCGCAGCCCCUGUCAGAUUCUGGUGAAUCUGCGAAUUCUGCUGUAUGUCUC [A20G A77G]  0.91
31. UAACAGGGGGCCACAGCAGGAGCGUUCACGUCGCAGCCCCUGUCAGAUUCUGAUGAAUCUGCGAAUUCUGCUGUAUAUCUC [A20G G53A]  0.98
32. UAACAGGGGGCCACAGCAGGAGCGUUCACGUCGCAGCCCCUGUCAGAUUCUGGUGAAUCUGCGAAUUCUGCUGUAUAUAUC [A20G C79A]  1.09
33. UAACAGGGGGCCACAGCAGGAGCGUUCACGUCGCAGCCCCUGUCAGAUUCUGGUGAAUCUGCGAAUUCUGCUGUAUAUGUC [A20G C79G]  1.09
34. UAACAGGGGGCCACAGCAGGAGCGUUCACGUCGCAGCCCCUGUCAGAUUCUUGUGAAUCUGCGAAUUCUGCUGUAUAUCUC [A20G G52U]  1.12
